Substitutions are numbered along the chain they refer to. Names and notes keep the numbering of the source. Non-standard residues stand in square brackets, D forms with d. No end group written: not given here. pY = N[C@@H](Cc1ccc(OP(=O)(O)O)cc1)C(=O)O
B1: phospho-Y-decapeptide p-NPM(Y29) (peptide)
peptide: ADKD[pY]HFKVD
notes: Stretch of nucleophosmin around Y29; source: synthetic peptide, bought: Chinese Peptide Company
B2: DUSP3-WT (dual-specificity phosphatase 3) (enzyme, UniProt P51452 1-185, looked up)
chain: MSGSFELSVQDLNDLLSDGSGCYSLPSQPCNEVTPRIYVGNASVAQDIPKLQKLGITHVLNAAEGRSFMHVNTNANFYKDSGITYLGIKANDTQEFNLSAYFERAADFIDQALAQKNGRVLVHCREGYSRSPTLVIAYLMMRQKMDVKSALSIVRQNREIGPNDGFLAQLCQLNDRLAKEGKLKP
notes: DUSP3 (VHR), wild type, cDNA in pGEX-4T2 (Torres et al., 2017); Immobilised on a CM5 sensorchip; also called VHR; vaccinia virus H1-related phosphatase; source: E. coli BL-21 (DE3), purified (Glutathione-Sepharose 4B; GST removed by thrombin)
B3: DUSP3-C124S mutant (phosphatase dead) (enzyme, UniProt P51452 1-185, looked up)
chain: B2 chain with C124S
notes: DUSP3 (VHR) with the catalytic cysteine 124 substituted by serine, cDNA in pGEX-4T2 (Torres et al., 2017); Immobilised on a CM5 sensorchip; source: E. coli BL-21 (DE3), purified (Glutathione-Sepharose 4B; GST removed by thrombin)
B4: phospho-Y-decapeptide p-NPM(Y17) (peptide)
peptide: SPLRPQN[pY]L
notes: Stretch of nucleophosmin around Y17; source: synthetic peptide, bought: Chinese Peptide Company
B5: phospho-Y-decapeptide p-NPM(Y67) (peptide)
peptide: AMN[pY]EGSPIK
notes: Stretch of nucleophosmin around Y67; source: synthetic peptide, bought: Chinese Peptide Company
B6: phospho-Y-decapeptide p-NPM(Y271) (peptide)
peptide: EAKFIN[pY]VKN
notes: Stretch of nucleophosmin around Y271; source: synthetic peptide, bought: Chinese Peptide Company

Columns and labels:
[1] = target: B2; assay: SPR; Biacore T100; DUSP3-WT immobilised on CM5 sensorchip (3,000 RU); peptides 5-40 μM in HBS-N buffer; 25°C, 120 s association, 300 s dissociation, 10 μl/min; three independent experiments; details: both partners purified
ERK1 = target: T1, ERK1 (UniProt P27361 1-379); assay: SPR; Biacore T100; DUSP3-WT or DUSP3-C124S immobilised on CM5 sensorchip (200 RU); protein analytes 12.5-1,000 nM; kinetic assays at 25°C, HBS-EP buffer, 10 μl/min, 120 s association, 300 s dissociation; three independent experiments; details: both partners purified
T1 construct: ERK1, cDNA in pGEX-4T2 donated by Prof; Rony Seger; The sentence on purification and on removal of GST names DUSP3 and NPM full length but not ERK1; source: E. coli BL-21 (DE3), purified recombinant protein
T1 sequence (P27361 whole entry): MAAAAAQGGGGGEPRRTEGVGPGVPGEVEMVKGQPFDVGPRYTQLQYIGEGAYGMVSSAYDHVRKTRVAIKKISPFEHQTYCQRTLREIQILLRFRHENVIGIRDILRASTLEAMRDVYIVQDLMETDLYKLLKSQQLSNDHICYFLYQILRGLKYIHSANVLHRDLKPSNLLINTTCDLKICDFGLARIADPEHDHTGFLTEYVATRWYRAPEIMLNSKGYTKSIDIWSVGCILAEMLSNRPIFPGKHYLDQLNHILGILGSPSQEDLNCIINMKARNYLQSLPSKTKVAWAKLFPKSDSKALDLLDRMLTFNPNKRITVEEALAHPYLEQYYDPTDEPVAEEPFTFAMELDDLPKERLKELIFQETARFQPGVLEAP

| Binder | Kd [1] [nM] | Kd (ERK1) [nM] |
| --- | --- | --- |
| B1 | 2340 |  |
| B2 |  | 178 |
| B3 |  | 130 |
| B4 | 1620 |  |
| B5 | 2010 |  |
| B6 | 2070 |  |
